Reference: patent US20180193454A1 (IMMUNEXT, published 2018)
Residue numbers refer to the chain shown, from its start.

T1: CD154 expressed on cells (CD154 expressing Jurkat cells; T cell CD154) (UniProt P29965 1-261, limits assumed)
T1 construct: whole, on cells; also called CD154 (expressed on Jurkat cells)
T1 sequence (looked up): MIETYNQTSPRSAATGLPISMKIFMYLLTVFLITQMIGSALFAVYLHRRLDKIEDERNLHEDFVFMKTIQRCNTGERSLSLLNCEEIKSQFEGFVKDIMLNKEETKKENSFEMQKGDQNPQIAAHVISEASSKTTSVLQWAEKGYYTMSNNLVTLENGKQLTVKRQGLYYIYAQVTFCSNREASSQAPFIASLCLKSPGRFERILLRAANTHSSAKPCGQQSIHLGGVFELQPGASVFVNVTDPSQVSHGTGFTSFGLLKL

T2: human CD154 (human, UniProt P29965 113-261, limits assumed)
T2 construct: also called CD154 antigen; CD40L
T2 sequence (looked up): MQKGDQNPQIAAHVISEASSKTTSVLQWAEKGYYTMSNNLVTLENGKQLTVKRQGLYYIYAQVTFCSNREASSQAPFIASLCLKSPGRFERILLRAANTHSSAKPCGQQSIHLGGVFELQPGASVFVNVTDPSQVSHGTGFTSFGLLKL

B1: IDEC-131, humanized anti-human CD154 IgG1 antibody (antibody, V domains shown)
VH: EVQLQESGPGLVKPSETLSLTCTVSGDSITNGFWIWIRKPPGNKLEYMGYISYSGSTYYNPSLKSRISISRDTSKNQFSLKLSSVTAADTGVYYCACRSYGRTPYYFDFWGQGTTLTVSS
VL: DIVMTQSPSFLSASVGDRVTITCKASQNVITAVAWYQQKPGKSPKLLIYSASNRYTGVPDRFSGSGSGTDFTLTISSLQPEDFADYFCQQYNSYPYTFGGGTKLEIK
notes: Humanized human IgG1 derived from mouse antibody 24-31
B2: variant 22, humanized anti-human CD154 antibody derived from IDEC-131 (antibody, V domains shown)
VH: B1 VH with C97Y, F109Y
VL: B1 VL with Q27S, V29L, I30G, T31N, N92D, S93D
B3: variant 27, humanized anti-human CD154 antibody derived from IDEC-131 (antibody, V domains shown)
VH: B1 VH with C97Y, F109Y
VL: B1 VL with N28H, V29L, I30G, T31H, N92D, S93D
B4: INX021 (variant 21), humanized anti-human CD154 IgG1 antibody derived from IDEC-131 (antibody, V domains shown)
VH: B1 VH with C97Y, F109Y
VL: B1 VL with Q27S, V29L, I30G, T31H, N92D, S93D
B5: variant 31, humanized anti-human CD154 antibody derived from IDEC-131 (antibody, V domains shown)
VH: B1 VH with C97Y, F109Y
VL: B1 VL with S26N, N28P, V29L, I30G, T31H, N92D, S93D
B6: variant 28, humanized anti-human CD154 antibody derived from IDEC-131 (antibody, V domains shown)
VH: B1 VH with C97Y, F109Y
VL: B1 VL with S26P, Q27S, N28S, V29L, I30G, T31H, N92D, S93D
B7: variant 25, humanized anti-human CD154 antibody derived from IDEC-131 (antibody, V domains shown)
VH: B1 VH with C97Y, F109Y
VL: B1 VL with V29L, I30N, T31H, N92D, S93D
B8: variant 29, humanized anti-human CD154 antibody derived from IDEC-131 (antibody, V domains shown)
VH: B1 VH with C97Y, F109Y
VL: B1 VL with A25G, S26N, N28P, V29L, I30G, T31H, N92D, S93D
B9: variant 23, humanized anti-human CD154 antibody derived from IDEC-131 (antibody, V domains shown)
VH: B1 VH with C97Y, F109Y
VL: B1 VL with A25G, Q27S, N28P, V29L, I30G, T31H, N92D, S93D
notes: also called combination #23
B10: variant 30, humanized anti-human CD154 antibody derived from IDEC-131 (antibody, V domains shown)
VH: B1 VH with C97Y, F109Y
VL: B1 VL with S26G, Q27H, N28S, V29L, I30G, N92D, S93D
B11: variant 26, humanized anti-human CD154 antibody derived from IDEC-131 (antibody, V domains shown)
VH: B1 VH with C97Y, F109Y
VL: B1 VL with N28H, V29L, I30G, N92D, S93D
B12: variant 24, humanized anti-human CD154 antibody derived from IDEC-131 (antibody, V domains shown)
VH: B1 VH with C97Y, F109Y
VL: B1 VL with S26P, V29L, I30G, N92D, S93D

Assays:
[1] = molecular target: T1, CD154 expressed on cells (CD154 …); test: binding to CD40L (CD154) expressing Jurkat cells, readout % normalized mean MFI (panel title 'CD40L Jurkat Binding'; legend paragraph 14 calls it a BIAcore assay)
[2] = molecular target: T2, human CD154; test: SPR, Biacore 3000, 25 C; antibody immobilized, CD154 antigen flowed over; average n = 6
Experimental: (§1) Binding experiments were performed on Biacore […] at 25° C. […] Binding of antigen to the tested antibodies was monitored in real time. From the observed kₒₙ, the koff and KD was determined for each variant.
(§2) Scoring analysis was performed using specific analyte concentrations. At the tested concentration, binding should be observed even if the ligand binding affinity is relatively weak. Full kinetics may be performed by known methods. For the molecular interactions with fast off rate, steady state kinetics may be used to determine the KD value.

[3] = molecular target: T1, CD154 expressed on cells (CD154 …); test: binding to CD154 expressing Jurkat cells (legend calls it BIAcore binding assays), FIG. 3
[4] = molecular target: T2, human CD154; test: SPR, Biacore 3000, 25 C; antibody immobilized, CD154 antigen flowed over; average n = 6; exponent sign is a misprint in the cell ('+04'); value taken as E-04, as fixed by the same row's KD x Ka (3.62E-11 x 4.11E+06 = 1.49E-04)
Experimental: as §1, §2

Binder	EC50 (read off the curve) [1]	Fold improvement in KD (compared to IDEC131) [2]	Kd [2]	koff [2]	kon [2]	fold increase in binding affinity compared to IDEC-131 [3]	koff [4]
B1	~4000 pM	1 fold	151 pM	0.000525 s⁻¹	3.47e+06 M⁻¹ s⁻¹		
B2		5.2 fold	26.2 pM	0.000117 s⁻¹	4.48e+06 M⁻¹ s⁻¹		
B3		4.5 fold	33.6 pM	0.00012 s⁻¹	3.58e+06 M⁻¹ s⁻¹		
B4		4.7 fold	28.9 pM	0.000128 s⁻¹	4.42e+06 M⁻¹ s⁻¹	~5 fold	
B5		4.8 fold	34.1 pM	0.000123 s⁻¹	3.61e+06 M⁻¹ s⁻¹		
B6		4.8 fold	31.5 pM	0.000115 s⁻¹	3.65e+06 M⁻¹ s⁻¹		
B7		3.9 fold	36.2 pM		4.11e+06 M⁻¹ s⁻¹		0.000149 s⁻¹
B8		4.2 fold	34.4 pM	0.000133 s⁻¹	3.86e+06 M⁻¹ s⁻¹		
B9		4.2 fold	42.1 pM	0.000141 s⁻¹	3.35e+06 M⁻¹ s⁻¹		
B10		4.4 fold	32.9 pM	0.00014 s⁻¹	4.24e+06 M⁻¹ s⁻¹		
B11		2.5 fold	57.6 pM		2.03e+06 M⁻¹ s⁻¹		
B12		4.9 fold	36.4 pM	0.000135 s⁻¹	3.7e+06 M⁻¹ s⁻¹		
